Patent US20180344812A1 (Scripps Research, published 2018)
Bridges are numbered along the chain shown (N, C = ends). Primed or numbered codes have the meaning given here. Where no end group is shown, it is not given here. [ ]: non-standard residue; d: D form. L1″ = C4 bis(bromoacetamide) staple without lipid, joins two Cys through thioethers; L4″ = octadecanedioic acid-PEG-ornithine staple, joins two Cys through thioethers; L2″ = myristic acid-PEG-ornithine staple, joins two Cys through thioethers; L6″ = as L5, made on Rink amide resin, joins two Cys through thioethers; L1 = C4 bis(bromoacetamide) staple without lipid; L4 = octadecanedioic acid-PEG-ornithine staple; L3 = myristic acid-PEG-PEG-ornithine staple; L5 = C18 diacid-Lys-PEG2-ornithine staple; L2 = myristic acid-PEG-ornithine staple; L6 = made as L5 but on Rink amide resin; L11 = not defined here; L12 = not defined here; L13 = not defined here; L7 = not defined here; L8 = not defined here; L9 = not defined here

T1: human Glucagon-like peptide 2 receptor (GLP-2R) (human, UniProt O95838 1-553)
T1 sequence (looked up): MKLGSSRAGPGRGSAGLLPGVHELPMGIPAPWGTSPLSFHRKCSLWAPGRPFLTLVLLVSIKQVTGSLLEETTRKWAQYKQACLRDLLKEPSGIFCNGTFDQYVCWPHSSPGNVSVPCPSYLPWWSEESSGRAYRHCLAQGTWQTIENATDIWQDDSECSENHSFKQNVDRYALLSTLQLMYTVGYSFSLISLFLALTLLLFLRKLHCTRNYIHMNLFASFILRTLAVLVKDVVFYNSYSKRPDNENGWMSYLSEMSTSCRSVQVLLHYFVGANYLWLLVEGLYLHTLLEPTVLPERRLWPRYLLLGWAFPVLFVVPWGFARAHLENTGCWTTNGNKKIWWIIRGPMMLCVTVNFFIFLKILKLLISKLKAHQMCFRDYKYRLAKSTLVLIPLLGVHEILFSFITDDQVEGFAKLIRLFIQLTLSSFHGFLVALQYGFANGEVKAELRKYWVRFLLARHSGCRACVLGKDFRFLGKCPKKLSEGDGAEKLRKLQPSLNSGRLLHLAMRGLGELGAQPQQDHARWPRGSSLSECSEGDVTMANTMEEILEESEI


Experiments:
Test in all cases: cell-based or functional assay
[1] = target: human glucagon-like peptide 1 receptor (GLP-1R) (human, UniProt P43220 24-463)
[2] = target: human glucagon receptor (GCGR) (human, UniProt P47871 26-477)
human glucagon receptor (GCGR), sequence (P47871 26-477): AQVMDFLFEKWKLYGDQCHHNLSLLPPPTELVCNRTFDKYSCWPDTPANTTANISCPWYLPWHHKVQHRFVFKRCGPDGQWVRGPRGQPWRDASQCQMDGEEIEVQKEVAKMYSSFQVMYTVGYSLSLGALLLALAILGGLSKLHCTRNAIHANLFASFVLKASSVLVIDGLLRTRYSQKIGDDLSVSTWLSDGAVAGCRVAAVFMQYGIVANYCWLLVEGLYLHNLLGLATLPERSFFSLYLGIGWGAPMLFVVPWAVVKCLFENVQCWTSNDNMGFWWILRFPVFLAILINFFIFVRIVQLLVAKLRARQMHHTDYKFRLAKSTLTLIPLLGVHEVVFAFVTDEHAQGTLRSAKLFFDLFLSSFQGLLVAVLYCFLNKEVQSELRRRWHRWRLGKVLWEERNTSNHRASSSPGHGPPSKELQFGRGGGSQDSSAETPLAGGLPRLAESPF

[3] = target: T1, human Glucagon-like peptide 2 receptor …

| Binder | EC50, CRE-luciferase reporter in HEK293-GLP-1R-CRE cells [1] [nM] | EC50, CRE-luciferase reporter in HEK293-GCGR-CRE cells [2] [nM] | EC50, CRE-luciferase reporter in HEK293-GLP-2R-CRE cells [3] [nM] |
| --- | --- | --- | --- |
| H[dS]QGTFTSDYSKYLDECAAKEFICWLLRA (linker 17-24 via L6) [mTA 33: GLP-1/Glucagon (B) and L6] | 0.05 | 0.4 | – |
| H[dS]QGTFTSDYSKYLDECAAKEFICWLLRAGPSSGAPPPS (linker 17-24 via L4) [mTA 34: GLP-1/Glucagon (C) and L4] | 0.04 | 0.4 | – |
| H[dS]QGTFTSDYSKYLDECAAKEFICWLLRAGPSSGAPPPS (linker 17-24 via L6) [mTA 36: GLP-1/Glucagon (C) and L6] | 0.3 | 0.5 | – |
| H[dS]QGTFTSDYSKYLDECAAKEFICWLMNTKRNRNNIA (linker 17-24 via L13; reading uncertain; also: printed as HsQGTFTSDYSKYLDEXAAKEFIXWLMNTKRNRNNIA) [mTA 26: OXM (B) and L13] | 0.05 | 0.5 | – |
| H[dS]QGTFTSDYSKYLDECAAKEFICWLLNGGPSSGAPPPS (linker 17-24 via L4) [mTA 37: GLP-1/Glucagon (D) and L4] | 0.03 | 0.2 | – |
| H[dS]QGTFTSDYSKYLDECAAKEFICWLMNTKRNRNNIA (linker 17-24 via L7; reading uncertain; also: printed as HsQGTFTSDYSKYLDEXAAKEFIXWLMNTKRNRNNIA) [mTA 20: OXM (B) and L7] | 17 | 5.4 | – |
| H[dS]QGTFTSDYSKYLDECAAKEFICWLLRA (linker 17-24 via L2) [mTA 30: GLP-1/Glucagon (B) and L2] | 0.03 | 0.05 | – |
| H[dS]QGTFTSDYSKYLDECAAKEFICWLLNGGPSSGAPPPS (linker 17-24 via L6) [mTA 39: GLP-1/Glucagon (D) and L6] | 0.04 | 0.3 | – |
| H[dS]QGTFTSDYSKYLDECAAKEFICWLLNGGPSSGAPPPS (linker 17-24 via L5) [mTA 38: GLP-1/Glucagon (D) and L5] | 0.04 | 0.4 | – |
| H[dS]QGTFTSDYSKYLDECAAKEFICWLMNTKRNRNNIA (linker 17-24 via L12; reading uncertain; also: printed as HsQGTFTSDYSKYLDEXAAKEFIXWLMNTKRNRNNIA) [mTA 25: OXM (B) and L12] | 0.1 | 0.5 | – |
| H[dS]QGTFTSDYSKYLDECAAKEFICWLMNTKRNRNNIA (linker 17-24 via L4″) [mTA 17: OXM (B) and L4] | 2 | 3 | – |
| H[dS]QGTFTSDYSKYLDECAAKEFICWLLRAGPSSGAPPPS (linker 17-24 via L5) [mTA 35: GLP-1/Glucagon (C) and L5] | 0.5 | 1 | – |
| H[dS]QGTFTSDYSKYLDECAAKEFICWLMNTKRNRNNIA (linker 17-24 via L6″) [mTA 19: OXM (B) and L6] | 0.2 | – | – |
| H[dS]QGTFTSDYSKYLDECAAKEFICWLLRA (linker 17-24 via L5) [mTA 32: GLP-1/Glucagon (B) and L5] | 0.3 | 1 | – |
| H[dS]QGTFTSDYSKYLDECAAKEFICWLMNTKRNRNNIA (linker 17-24 via L9; not fully specified; printed as HsQGTFTSDYSKYLDEXAAKEFIXWLMNTKRNRNNIA; reading uncertain) [mTA 22: OXM (B) and L9] | 40 | 14 | – |
| H[dS]QGTFTSDYSKYLDECAAKEFICWLMNTKRNRNNIA (linker 17-24 via L2″) [mTA 16: OXM (B) and L2] | 0.04 | 0.3 | – |

| Binder | EC50, CRE-luciferase reporter in HEK293-GLP-1R-CRE cells [1] [nM] | EC50, CRE-luciferase reporter in HEK293-GCGR-CRE cells [2] [nM] | EC50, CRE-luciferase reporter in HEK293-GLP-2R-CRE cells [3] [nM] |
| --- | --- | --- | --- |
| H[dS]QGTFTSDYSKYLDSCAAHDFVCWLLRA (linker 17-24 via L2) [mTA 28: GLP-1/Glucagon (A) and L2] | 0.1 | 0.1 | – |
| H[dS]QGTFTSDYSKYLDECAAKEFICWLMNTKRNRNNIA (linker 17-24 via L11; reading uncertain; also: printed as HsQGTFTSDYSKYLDEXAAKEFIXWLMNTKRNRNNIA) [mTA 24: OXM (B) and L11] | 0.2 | 3 | – |
| H[dS]QGTFTSDYSKYLDECAAKEFICWLMNTKRNRNNIA (linker 17-24 via L5) [mTA 18: OXM (B) and L5] | 0.2 | – | – |
| H[dS]QGTFTSDYSKYLDECAAKEFICWLLRA (linker 17-24 via L1) [mTA 29: GLP-1/Glucagon (B) and L1] | 0.03 | 0.03 | – |
| H[dS]QGTFTSDYSKYLDECAAKEFICWLMNTKRNRNNIA (linker 17-24 via L1″) [mTA 15: OXM (B) and L1] | 0.03 | 0.2 | – |
| H[dS]QGTFTSDYSKYLDECAAKEFICWLLRA (linker 17-24 via L4) [mTA 31: GLP-1/Glucagon (B) and L4] | 0.03 | 0.12 | – |
| H[dS]QGTFTSDYSKYLDSCAAHDFVCWLLRA (linker 17-24 via L1) [mTA 27: GLP-1/Glucagon (A) and L1] | 0.2 | 0.04 | – |
| HGDGSFSDEMNTILDNCAARDFICWLIQTKITD (linker 17-24 via L1) [mTA 46: GLP-2 (A) and L1] | – | – | 0.045 |
| HGDGSFSDEMNTILDNCAARDFICWLIQTKITD (linker 17-24 via L5) [mTA 50: GLP-2 (A) and L5] | – | – | 6.4 |
| HGDGSFSDEMNTILDNCAARDFICWLIQTKITD (linker 17-24 via L6) [mTA 51: GLP-2 (A) and L6] | – | – | 0.7 |
| HGDGSFSDEMNTILDNCAARDFICWLIQTKITD (linker 17-24 via L3) [mTA 48: GLP-2 (A) and L3] | – | – | 0.045 |
| HGDGSFSDEMNTILDNCAARDFICWLIQTKITD (linker 17-24 via L2) [mTA 47: GLP-2 (A) and L2] | – | – | 0.041 |
| HGDGSFSDEMNTILDCLAARDFICWLIQTKITD (linker 16-24 via L1) [mTA 52: GLP-2 (C) and L1] | – | – | 5.6 |
| HGDGSFSDEMNTILDNCAARDFICWLIQTKITD (linker 17-24 via L4) [mTA 49: GLP-2 (A) and L4] | – | – | 0.241 |
| H[dS]QGTFTSDYSKYLDECAAKEFICWLMNTKRNRNNIA (linker 17-24 via L8; reading uncertain; also: printed as HsQGTFTSDYSKYLDEXAAKEFIXWLMNTKRNRNNIA) [mTA 21: OXM (B) and L8] | 0.12 | 0.7 | – |
